Results on one molecule are retold here after paper PMC7049697.

One data set addresses T1, Rap1-DBD (Saccharomyces cerevisiae, UniProt P11938 358-601).
T1 sequence: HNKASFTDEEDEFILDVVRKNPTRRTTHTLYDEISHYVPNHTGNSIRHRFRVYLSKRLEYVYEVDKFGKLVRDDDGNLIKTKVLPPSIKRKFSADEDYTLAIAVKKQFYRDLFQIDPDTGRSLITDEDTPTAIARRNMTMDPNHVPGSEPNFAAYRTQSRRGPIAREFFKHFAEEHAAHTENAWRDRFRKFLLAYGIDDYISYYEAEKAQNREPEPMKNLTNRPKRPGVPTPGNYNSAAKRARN
Briefly: EMSA. A general note: In EMSA bound probe runs differently from free probe, usually more slowly.

A further data set addresses T2, Rap1-DBD P520L (Saccharomyces cerevisiae, UniProt P11938 358-601, P520L).
T2 sequence: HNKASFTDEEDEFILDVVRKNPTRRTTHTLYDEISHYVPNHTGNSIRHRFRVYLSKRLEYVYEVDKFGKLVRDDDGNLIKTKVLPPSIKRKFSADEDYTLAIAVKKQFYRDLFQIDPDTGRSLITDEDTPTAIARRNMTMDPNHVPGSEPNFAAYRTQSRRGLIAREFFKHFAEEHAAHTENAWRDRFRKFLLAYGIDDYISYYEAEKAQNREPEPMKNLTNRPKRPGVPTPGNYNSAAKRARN
As to the kind of experiment: EMSA.

B1: 21 bp telomeric Rap1 site dsDNA (dsDNA)
DNA 1: CCGCACACCCACACACCAGTG
DNA 2: CACTGGTGTGTGGGTGTGCGG
For B1, the binding result with Rap1-DBD and with Rap1-DBD P520L was “binds” throughout.
